# Assay results as given in patent publication US20240181022A1, “AMURINS LYSINS, AND LYSIN-ANTIMICROBIAL PEPTIDE (AMP) CONSTRUCTS ACTIVE AGAINST GRAM-NEGATIVE BACTERIA” (priority 2021, published 2024).
# Where no end group is shown, it is not given here.
# B1: GN370: lysin-AMP construct, SEQ ID NO: 149: MIDR, FIRL and NPTH moieties N-terminal to GN202 lysin (protein)
# chain: MIDRFIRLNPTHGPRRPRRPGRRAPVRTSQRGIDLIKSFEGLRLSAYQDSVGVWTIGYGTTRGVTRYMTITVEQAERMLSNDIQRFEPELDRLAKVPLNQNQWDALMSFVYNLGAANLASSTLLDLLNKGDYQGAADQFPHWVNAGGKRLDGLVKRRAAERALFLEPLS
# modifications: GN370 lysin
# Experiments:
# [1] = test system: A. baumannii; assay: Checkerboard synergy assay (FICI) against A. baumannii; type: cell-based, Acinetobacter baumannii; settings: A. baumannii ATCC BAA-747
# Procedure: Any known method to assess MIC may be used.
# Checkerboards are constructed by first preparing columns of e.g., a 96-well polypropylene microtiter plate, wherein each well has the same amount of antibiotic diluted 2-fold along the horizontal axis. […] Bacteria are added to the drug combinations at concentrations of 1×10^5 […] in CAA, for example, with or without human serum or pulmonary surfactant. […] Summation fractional inhibitory concentrations (ΣFICs) are calculated for each drug and the minimum ΣFIC value (ΣFICmin) is used to determine the effect of the Chp peptide/antibiotic combination.
# (§1) GN370 was further tested in combination with up to seven additional antibiotics (in addition to meropenem) against a variety of bacterial strains, including P. aeruginosa, A. baumannii, E. coli, E. cloacae, and K. pneumoniae. GN370 and the subject antibiotics were tested in a checkerboard assay format, and FICI values were determined, wherein ≤0.5 indicates synergy, >0.5-≤1 indicates additive; and >1 indicates indifferent.
# [2] = test system: E. coli; assay: Checkerboard synergy assay (FICI) against E. coli; type: cell-based, Escherichia coli; settings: E. coli ATCC 25922
# Source text: In some embodiments, the Chp peptides disclosed herein or active fragments thereof reduce the minimum inhibitory concentration (MIC) of an antibiotic in the presence and/or absence of human serum, pulmonary surfactant, and/or sputum, including human sputum and human sputum from a cystic fibrosis patient. Any known method to assess MIC may be used. In some embodiments, a checkerboard assay is used to determine the effect of a Chp peptide or active fragment thereof on antibiotic concentration. The checkerboard assay is based on a modification of the CLSI method for MIC determination by broth microdilution (See Clinical and Laboratory Standards Institute (CLSI), CLSI. 2015. Methods for Dilution Antimicrobial Susceptibility Tests for Bacteria That Grow Aerobically; Approved Standard-10th Edition. Clinical and Laboratory Standards Institute, Wayne, PA, which is herein incorporated by reference in its entirety and Ceri et al. 1999. J. Clin. Microbiol. 37: 1771-1776, which is also herein incorporated by reference in its entirety).
# Checkerboards are constructed by first preparing columns of e.g., a 96-well polypropylene microtiter plate, wherein each well has the same amount of antibiotic diluted 2-fold along the horizontal axis. […] The Chp peptide or active fragment thereof and antibiotic dilutions are then combined, so that each column has a constant amount of antibiotic and doubling dilutions of Chp peptide, while each row has a constant amount of Chp peptide and doubling dilutions of antibiotic. Each well thus has a unique combination of Chp peptide and antibiotic. Bacteria are added to the drug combinations at concentrations of 1×10^5 GFU/ml in CAA, for example, with or without human serum or pulmonary surfactant. […] Summation fractional inhibitory concentrations (ΣFICs) are calculated for each drug and the minimum ΣFIC value (ΣFICmin) is used to determine the effect of the Chp peptide/antibiotic combination.
# as §1
# [3] = test system: P. aeruginosa AR-769; assay: Repeat dose study of AM1 in the rabbit pulmonary infection model; type: in vivo; settings: for Log CFU change v. pre-treatment (at 6 hours) / Mean Bacterial Density in Lung ± SD / Survival: rabbit
# [4] = test system: Klebsiella oxytoca; assay: MIC by broth microdilution against Klebsiella oxytoca; type: cell-based; settings: N 1
# Procedure: (§2) MIC values were determined by broth microdilution against clinical isolates and resistant isolates from a wide range of bacterial species, including isolates from the CDC Antibiotic Resistance bank, including the GN ESKAPE pathogens and E. coli, including carbapenem-resistant Enterobacteriaciae, Acinetobacter, and Pseudomonas.
# [5] = test system: Gram-negative bacteria biofilm; assay: Antibiofilm activity (MBEC) against Gram-negative bacteria, incl. MDR and XDR isolates; type: cell-based; settings: range of MDR and XDR isolates
# [6] = test system: E. cloacae; assay: MBEC against E. cloacae biofilm; type: cell-based, Enterobacter cloacae; settings: MDR and XDR E. cloacae (14)
# [7] = test system: E. cloacae; assay: GN370 time-kill assay, E. cloacae; type: cell-based, Enterobacter cloacae; settings: for Log10 CFU/mL: E. cloacae ATCC 29941
# Procedure: A kinetic analysis of GN370 bactericidal activity was performed using a time-kill assay format in which CFU reductions of each target organism (P. aeruginosa, K. pneumoniae, A. baumannii, E. coli, and E. cloacae) were measured over 24 hours at 37° C. […] Bactericidal activity was defined as CFU reductions of ≥3-log 10 CFU/mL as compared to the inoculum at the 24-hour time point.
# [8] = test system: E. coli (ATCC 25922); assay: microbe, parasite or virus in culture; type: cell-based, Escherichia coli
# [9] = test system: K. pneumoniae (1_1_5 HM-44); assay: microbe, parasite or virus in culture; type: cell-based, Klebsiella pneumoniae
# [10] = test system: E. cloacae (ATCC 13047); assay: microbe, parasite or virus in culture; type: cell-based, Enterobacter cloacae
# [11] = test system: P. aeruginosa AR-769; assay: GN370 in the rabbit pneumonia model; type: in vivo, New Zealand White rabbits
# [12] = test system: Ralstonia mannitolilytica; assay: MIC by broth microdilution against Ralstonia mannitolilytica; type: cell-based; settings: N 10
# Procedure: as §2
# [13] = AM1 1 mg/kg i.v. every 24 hours (n = 7)
# [14] = AM1 5 mg/kg i.v. every 24 hours (n = 8)
molecule,measurement,setting,value
"C[C@@H](O)[C@H]1C(=O)N2C(C(=O)O)=C(S[C@@H]3CN[C@H](C(=O)N(C)C)C3)[C@H](C)[C@H]12 [meropenem, reference compound]",FICI of the antibiotic with GN370,[1],0.5
same,FICI of the antibiotic with GN370,[2],0.5
MRLKMARRRYRLPRRRSRRLFSRTALRMHPRNRLRRIMRGGIRF [AM1],mean bacterial density in lungs compared to the vehicle control group,"[3]; agent alone, intravenous, treatment from 6 hours post-infection",moderate to no CFU/g reduction
same,Log CFU change v. pre-treatment (at 6 hours),[3]; [13],1.56 Log CFU
same,Mean Bacterial Density in Lung ± SD,[3]; [13],9.02 ± 1.49 Log CFU/lung
same,Survival,[3]; [13],0%
same,Log CFU change v. pre-treatment (at 6 hours),[3]; [14],1.80 Log CFU
same,Mean Bacterial Density in Lung ± SD,[3]; [14],8.98 ± 1.47 Log CFU/lung
same,Survival,[3]; [14],37.5%
B1,MIC Range,[4],4 µg/mL
same,MBEC,[5],≤ 4 µg/mL
same,MBEC50,[6],1 µg/mL
same,MBEC90,[6],2 µg/mL
same,MBEC Range,[6],0.5 to 2 µg/mL
same,Number of isolates at MBEC 0.5 μg/mL,[6],1
same,Number of isolates at MBEC 1 μg/mL,[6],9
same,Number of isolates at MBEC 2 μg/mL,[6],4
same,Log10 CFU/mL,"[7]; 0.2x MIC, 1 hr",5.0 Log10 CFU/mL
same,Log10 CFU/mL,"[7]; 0.2x MIC, 3 hr",5.0 Log10 CFU/mL
same,Log10 CFU/mL,"[7]; 0.2x MIC, 24 hr",9.0 Log10 CFU/mL
same,Log10 CFU/mL,"[7]; 1x MIC, 1 hr",2.4 Log10 CFU/mL
same,Log10 CFU/mL,"[7]; 1x MIC, 3 hr",1.5 Log10 CFU/mL
same,Log10 CFU/mL,"[7]; 1x MIC, 24 hr",2.3 Log10 CFU/mL
same,Log10 CFU/mL,"[7]; 2x MIC, 1 hr",1.6 Log10 CFU/mL
same,Log10 CFU/mL,"[7]; 2x MIC, 3 hr",1.6 Log10 CFU/mL
same,Log10 CFU/mL,"[7]; 2x MIC, 24 hr",1.6 Log10 CFU/mL
same,Log10 CFU/mL,"[7]; 5x MIC, 1 hr",1.5 Log10 CFU/mL
same,Log10 CFU/mL,"[7]; 5x MIC, 3 hr",1.5 Log10 CFU/mL
same,Log10 CFU/mL,"[7]; 5x MIC, 24 hr",1.5 Log10 CFU/mL
same,concentration with bactericidal activity (≥3-log 10 CFU/mL reduction at 24 hours),"[7]; E. cloacae, 37° C.",≥ 1 ×MIC
same,change in MIC over 28-day serial passage,[8]; E. coli (ATCC 25922),No change
same,MIC,"[8]; E. coli ATCC 25922, target organism of serial passage study",0.5 µg/mL
same,MIC,"[9]; K. pneumoniae 1_1_5_HM-44, target organism of serial passage study",2 µg/mL
same,change in MIC over 28-day serial passage,[9]; K. pneumoniae (1_1_5 HM-44),≤ 2 fold
same,change in MIC over 28-day serial passage,"[9]; K. pneumoniae, another instance",no change
same,change in MIC over 28-day serial passage,[10]; E. cloacae (ATCC 13047),≤ 2 fold
same,MIC,"[10]; E. cloacae ATCC 13047, target organism of serial passage study",1 µg/mL
same,animals surviving until the end of the study,[11]; GN370 at 3 mg/kg and 10 mg/kg alone or in addition to amikacin,100%
same,decrease of mean bacterial densities in lungs vs vehicle controls,[11]; amikacin-alone or GN370-alone,~2.0 log10 CFU/g
same,MIC50,[12],>64 µg/mL
same,MIC90,[12],>64 µg/mL
same,MIC Range,[12],>64 µg/mL
